The record followed here is doi:10.1101/2021.09.13.460064.

Where two headings read alike, the source gives them in different places.

Holding throughout (experiment): SEC-MALS
For test [1], the target named is His-tagged N. castellii Kar9 N-terminal domain, wild type (NcKar9N-αβγ) (Naumovozyma castellii).
The target in test [2] is His-tagged NcKar9N-αβ• (γ-interface mutant, Tyr363Ala/Arg364Ala) (Naumovozyma castellii).
For test [3] the target is unchanged. This is another data set of the same source.
Test [4] concerns the target His-tagged NcKar9N-α•γ (β-interface mutant, Arg233Ala/Ile237Ala) (Naumovozyma castellii).
The target is the same in test [5]. This is another data set of the same source.

In test [1], “His-tagged N. castellii Kar9 N-terminal domain, wild type (NcKar9N-αβγ) (domain or fragment)” registered a stoichiometry N of 2.
As to “His-tagged NcKar9N-αβ• (γ-interface mutant, Tyr363Ala/Arg364Ala) (domain or fragment)”, the stoichiometry N in test [2] and in test [3] was < 4 in each case.
Turning to “His-tagged NcKar9N-α•γ (β-interface mutant, Arg233Ala/Ile237Ala) (domain or fragment)”, the stoichiometry N in test [4] and in test [5] was 2 in each case.
